The values below come from the Immune Epitope Database (IEDB).

Among the targets are HLA-A*03:01; HLA-A*11:01; HLA-B*07:02.
Experiment in all cases: IEDB peptide-MHC binding, purified MHC/competitive/radioactivity; ≥ and ≤ were set here for values at or beyond the usual limits of such assays
Holding throughout (settings): source organism: Homo sapiens

pIC50: −log10 of the molar value.

With YMVPFIPLYR, the values for the pIC50 in the assay with HLA-A*03:01 and in the assay with HLA-A*11:01 were 7.58 and 7.41, respectively.

As for GTQCALTRR, the pIC50 with HLA-A*11:01 was 7.50.

With SSSHWLRLPR, the negative logarithm of the IC50 (pIC50) in the assay with HLA-A*11:01 is 7.34.

As to SIFEQWLRR, the negative logarithm of the IC50 (pIC50) is 7.34 with HLA-A*03:01 and 8.34 with HLA-A*11:01.

Consider VVLASLIYR, for which the negative logarithm of the IC50 (pIC50) is 7.75 with HLA-A*03:01 and 8.44 in the assay with HLA-A*11:01.

For the sequence VVLASLIYRR, the pIC50 in the assay with HLA-A*03:01 is 6.79; in the assay with HLA-A*11:01 it was 7.09.

As to HTMEVTVYHR, in the assay with HLA-A*03:01, the negative logarithm of the IC50 (pIC50) was 6.75.

For LIGCWYCRRR, the negative logarithm of the IC50 (pIC50) with HLA-A*03:01 was 6.75.

With AVVLASLIYR, the negative-log IC50 (pIC50) with HLA-A*11:01 was 8.46.

As to QTSAGHFPR, the pIC50 with HLA-A*11:01 is 7.79.

As to LPHSSSHWL, the pIC50 with HLA-B*07:02 was 7.76.
